# Biological target: human PSMA (prostate-specific membrane antigen) expressed on LNCaP cells (human, UniProt Q04609 1-750)
# Test: cell-based or functional assay
# human PSMA (prostate-specific membrane antigen) expressed on LNCaP cells, sequence (Q04609 whole entry): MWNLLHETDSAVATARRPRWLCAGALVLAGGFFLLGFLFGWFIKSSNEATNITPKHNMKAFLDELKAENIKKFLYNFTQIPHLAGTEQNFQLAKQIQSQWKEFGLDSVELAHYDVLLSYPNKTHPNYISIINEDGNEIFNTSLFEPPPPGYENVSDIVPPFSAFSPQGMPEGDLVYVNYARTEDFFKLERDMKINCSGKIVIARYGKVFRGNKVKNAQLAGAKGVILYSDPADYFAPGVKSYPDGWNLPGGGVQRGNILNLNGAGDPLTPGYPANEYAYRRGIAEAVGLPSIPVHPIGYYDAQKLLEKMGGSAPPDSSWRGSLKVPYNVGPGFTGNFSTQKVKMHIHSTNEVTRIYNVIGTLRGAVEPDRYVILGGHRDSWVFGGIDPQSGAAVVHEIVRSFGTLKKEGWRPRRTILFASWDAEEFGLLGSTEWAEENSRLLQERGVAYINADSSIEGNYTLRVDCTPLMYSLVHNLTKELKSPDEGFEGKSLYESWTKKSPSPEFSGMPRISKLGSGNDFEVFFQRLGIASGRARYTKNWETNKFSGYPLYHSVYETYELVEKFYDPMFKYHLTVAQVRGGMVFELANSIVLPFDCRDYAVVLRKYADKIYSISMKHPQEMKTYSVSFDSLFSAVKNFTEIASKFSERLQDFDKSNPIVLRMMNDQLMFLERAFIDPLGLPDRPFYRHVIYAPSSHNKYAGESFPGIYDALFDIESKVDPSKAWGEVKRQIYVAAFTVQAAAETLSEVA
binder,measurement,value
"PSMA 타겟 항체-약물 접합체 (PSMA target antibody-MMAE conjugate) (other, DAR 8.36, MMAE conjugated through a VC-PAB linker (antibody MMAE Conjugation Kit), DAR 8.36; sites not stated) VH: EVQLQQSGPELVKPGASVKISCKASGYAFSSSWMNWVKQRPGQGLEWIGRIYPADGDTNYNGKFKGKATLTADKSSSTAYMQLSSLTSVDSAVYFCARCGWDGGVYYAMDYWGQGTSVTVSS VL: DIVMTQSPASLAVSLGQRATISCRASKSVTTSGYSYMHWYQQKPGQPPKLLIYLASNLESGVPARFSGSGSGTDFTLNIHPVEEEDAATYYCQHSRELPRTFGGGTKLEIK","cytotoxicity on LNCaP cells (Cell counting kit-8, 72 h), IC50",0.5 nM

# — patent publication KR20230078152A (dated 2023)
